Data: patent publication US20230357395A1 (published 2023)

B1: BJM1079 (BJM0411 Parental) (antibody, V domains shown)
VH: EIQLLESGGGLVQPGGSLRLSCAVSGFSITTTGYHWNWVRQAPGKGLEWVGYIYSSGSTSYNPSLKSRFTISRDTSKNTFYLQMNSLRAEDTAVYYCARGDWHYFDYWGQGTMVTVSS
VL: DSVTTQSPLSLPVTLGQPASISCSGEKLSDKYVHWYQQRPGQSPRMLIYENDRRPSGVPDRFSGSNSGNDATLKISRVEAEDVGVYFCQFWDSTNSAVFGGGTKVEIK
B2: BJM1078 (BJM0407 Parental) (antibody, V domains shown)
VH: EIQLLESGGGLVQPGGSLRLSCAVSGFSITTTGYHWNWVRQAPGKGLEWVGYIYSSGSTSYNPSLKSRFTISRDTSKNTFYLQMNSLRAEDTAVYYCARGDWHYFDYWGQGTMVTVSS
VL: SSETTQPPSVSVSPGQTASITCSGEKLSDKYVHWYQQKPGQSPVMVIYENDRRPSGIPERFSGSNSGNTATLTISGTQAMDEADYFCQFWDSTNSAVFGGGTQLTVL
B3: BJM0889 (single arm anti-TRBC1 antibody, N297A) (antibody, V domains shown)
VH: QVQLVQSGAEVKKPGSSVKVSCKASGYTFTGYVMHWVRQAPGQGLEWMGFINPYNDDIQSNERFRGRVTITSDKSTTTAYMELSSLRSEDTAVYYCARGAGYNFDGAYRFFDFWGQGTLVTVSS
VL: DVVMTQSPLSLPVTLGQPASISCRSSQRLVHSNGNTYLHWYQQRPGQSPRLLIYRVSNRFPGVPDRFSGSGSGTDFTLKISRVEAEDVGVYFCSQSTHVPYTFGGGTKVEIK
B4: humanized JOVI.1 Fab BIM0460 (Fab, V domains shown)
VH: QVQLVQSGAEVKKPGSSVKVSCKASGYTFTGYVMHWVRQAPGQGLEWMGFINPYNDDIQSNERFRGRVTITSDKSTTTAYMELSSLRSEDTAVYYCARGAGYNFDGAYRFFDFWGQGTLVTVSS
VL: DVVMTQSPLSLPVTLGQPASISCRSSQRLVHSNGNTYLHWYQQRPGQSPRLLIYRVSNRFPGVPDRFSGSGSGTDFTLKISRVEAEDVGVYFCSQSTHVPYTFGGGTKVEIK
B5: JOVI.1 Fab BIM0446 (Fab, V domains shown)
VH: EVRLQQSGPDLIKPGASVKMSCKASGYTFTGYVMHWVKQRPGQGLEWIGFINPYNDDIQSNERFRGKATLTSDKSSTTAYMELSSLTSEDSAVYYCARGAGYNFDGAYRFFDFWGQGTTLTVSS
VL: DVVMTQSPLSLPVSLGDQASISCRSSQRLVHSNGNTYLHWYLQKPGQSPKLLIYRVSNRFPGVPDRFSGSGSGTDFTLKISRVEAEDLGIYFCSQSTHVPYTFGGGTKLEIK
B6: BJM1042 (anti-TRBC1/NKp30 bispecific antibody, N297A) (bispecific antibody)
heavy: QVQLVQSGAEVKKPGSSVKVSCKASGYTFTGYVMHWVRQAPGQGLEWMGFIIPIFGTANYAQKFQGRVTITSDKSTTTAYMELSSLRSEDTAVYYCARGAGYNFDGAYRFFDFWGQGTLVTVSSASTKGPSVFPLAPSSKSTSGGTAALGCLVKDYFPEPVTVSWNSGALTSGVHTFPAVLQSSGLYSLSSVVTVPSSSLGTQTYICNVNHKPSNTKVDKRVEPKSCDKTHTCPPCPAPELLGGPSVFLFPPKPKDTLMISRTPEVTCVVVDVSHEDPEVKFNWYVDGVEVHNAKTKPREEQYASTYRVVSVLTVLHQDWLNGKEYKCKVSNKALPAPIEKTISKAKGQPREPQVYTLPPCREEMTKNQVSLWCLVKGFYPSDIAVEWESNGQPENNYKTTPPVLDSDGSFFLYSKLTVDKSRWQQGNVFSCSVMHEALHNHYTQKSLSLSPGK
light: DVVMTQSPLSLPVTLGQPASISCRSSQRLVHSNGNTYLHWYQQRPGQSPRLLIYRVSNRFPGVPDRFSGSGSGTDFTLKISRVEAEDVGVYFCSQSTHVPYTFGGGTKVEIKRTVAAPSVFIFPPSDEQLKSGTASVVCLLNNFYPREAKVQWKVDNALQSGNSQESVTEQDSKDSTYSLSSTLTLSKADYEKHKVYACEVTHQGLSSPVTKSFNRGEC
scFv: EIQLLESGGGLVQPGGSLRLSCAVSGFSITTTGYHWNWVRQAPGKGLEWVGYIYSSGSTSYNPSLKSRFTISRDTSKNTFYLQMNSLRAEDTAVYYCARGDWHYFDYWGQGTMVTVSSGGGGSGGGGSGGGGSGGGGSDSVTTQSPLSLPVTLGQPASISCSGEKLSDKYVHWYQQRPGQSPRMLIYENDRRPSGVPDRFSGSNSGNDATLKISRVEAEDVGVYFCQFWDSTNSAVFGGGTKVEIKDKTHTCPPCPAPELLGGPSVFLFPPKPKDTLMISRTPEVTCVVVDVSHEDPEVKFNWYVDGVEVHNAKTKPREEQYASTYRVVSVLTVLHQDWLNGKEYKCKVSNKALPAPIEKTISKAKGQPREPQVCTLPPSREEMTKNQVSLSCAVKGFYPSDIAVEWESNGQPENNYKTTPPVLDSDGSFFLVSKLTVDKSRWQQGNVFSCSVMHEALHNHYTQKSLSLSPGK
B7: BJM1038 (antibody)
chain 1: not shown
chain 2: DVVMTQSPLSLPVTLGQPASISCRSSQRLVHSNGNTYLHWYQQRPGQSPRLLIYRVSNRFPGVPDRFSGSGSGTDFTLKISRVEAEDVGVYFCSQSTHVPYTFGGGTKVEIKRTVAAPSVFIFPPSDEQLKSGTASVVCLLNNFYPREAKVQWKVDNALQSGNSQESVTEQDSKDSTYSLSSTLTLSKADYEKHKVYACEVTHQGLSSPVTKSFNRGEC
chain 3: EIQLLESGGGLVQPGGSLRLSCAVSGFSITTTGYHWNWVRQAPGKGLEWVGYIYSSGSTSYNPSLKSRFTISRDTSKNTFYLQMNSLRAEDTAVYYCARGDWHYFDYWGQGTMVTVSSGGGGSGGGGSGGGGSGGGGSSSETTQPPSVSVSPGQTASITCSGEKLSDKYVHWYQQKPGQSPVMVIYENDRRPSGIPERFSGSNSGNTATLTISGTQAMDEADYFCQFWDSTNSAVFGGGTQLTVLDKTHTCPPCPAPELLGGPSVFLFPPKPKDTLMISRTPEVTCVVVDVSHEDPEVKFNWYVDGVEVHNAKTKPREEQYASTYRVVSVLTVLHQDWLNGKEYKCKVSNKALPAPIEKTISKAKGQPREPQVCTLPPSREEMTKNQVSLSCAVKGFYPSDIAVEWESNGQPENNYKTTPPVLDSDGSFFLVSKLTVDKSRWQQGNVFSCSVMHEALHNHYTQKSLSLSPGK
B8: BJM1052 (anti-TRBC1/NKp30 bispecific antibody, N297A) (bispecific antibody)
heavy: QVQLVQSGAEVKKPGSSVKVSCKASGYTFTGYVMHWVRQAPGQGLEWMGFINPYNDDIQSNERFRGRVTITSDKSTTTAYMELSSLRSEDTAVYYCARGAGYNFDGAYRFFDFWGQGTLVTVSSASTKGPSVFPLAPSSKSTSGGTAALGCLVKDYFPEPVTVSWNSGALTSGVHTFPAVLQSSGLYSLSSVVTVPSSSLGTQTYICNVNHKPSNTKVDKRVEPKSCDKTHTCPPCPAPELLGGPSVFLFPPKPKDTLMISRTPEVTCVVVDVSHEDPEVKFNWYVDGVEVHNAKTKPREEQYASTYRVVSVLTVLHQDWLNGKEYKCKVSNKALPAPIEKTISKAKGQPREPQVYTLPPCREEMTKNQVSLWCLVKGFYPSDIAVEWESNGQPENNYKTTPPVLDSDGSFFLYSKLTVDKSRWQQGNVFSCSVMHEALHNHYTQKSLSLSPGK
light: DVVMTQSPLSLPVTLGQPASISCRSSQRLVHSNGNTYLHWYQQRPGQSPRLLIYRVSNRFPGVPDRFSGSGSGTDFTLKISRVEAEDVGVYFCSQSTHVPYTFGGGTKVEIKRTVAAPSVFIFPPSDEQLKSGTASVVCLLNNFYPREAKVQWKVDNALQSGNSQESVTEQDSKDSTYSLSSTLTLSKADYEKHKVYACEVTHQGLSSPVTKSFNRGEC
scFv: EIQLLESGGGLVQPGGSLRLSCAVSGFSITTTGYHWNWVRQAPGKGLEWVGYIYSSGSTSYNPSLKSRFTISRDTSKNTFYLQMNSLRAEDTAVYYCARGDWHYFDYWGQGTMVTVSSGGGGSGGGGSGGGGSGGGGSDSVTTQSPLSLPVTLGQPASISCSGEKLSDKYVHWYQQRPGQSPRMLIYENDRRPSGVPDRFSGSNSGNDATLKISRVEAEDVGVYFCQFWDSTNSAVFGGGTKVEIKDKTHTCPPCPAPELLGGPSVFLFPPKPKDTLMISRTPEVTCVVVDVSHEDPEVKFNWYVDGVEVHNAKTKPREEQYASTYRVVSVLTVLHQDWLNGKEYKCKVSNKALPAPIEKTISKAKGQPREPQVCTLPPSREEMTKNQVSLSCAVKGFYPSDIAVEWESNGQPENNYKTTPPVLDSDGSFFLVSKLTVDKSRWQQGNVFSCSVMHEALHNHYTQKSLSLSPGK
B9: BJM1048 (antibody)
chain 1: not shown
chain 2: DVVMTQSPLSLPVTLGQPASISCRSSQRLVHSNGNTYLHWYQQRPGQSPRLLIYRVSNRFPGVPDRFSGSGSGTDFTLKISRVEAEDVGVYFCSQSTHVPYTFGGGTKVEIKRTVAAPSVFIFPPSDEQLKSGTASVVCLLNNFYPREAKVQWKVDNALQSGNSQESVTEQDSKDSTYSLSSTLTLSKADYEKHKVYACEVTHQGLSSPVTKSFNRGEC
chain 3: EIQLLESGGGLVQPGGSLRLSCAVSGFSITTTGYHWNWVRQAPGKGLEWVGYIYSSGSTSYNPSLKSRFTISRDTSKNTFYLQMNSLRAEDTAVYYCARGDWHYFDYWGQGTMVTVSSGGGGSGGGGSGGGGSGGGGSSSETTQPPSVSVSPGQTASITCSGEKLSDKYVHWYQQKPGQSPVMVIYENDRRPSGIPERFSGSNSGNTATLTISGTQAMDEADYFCQFWDSTNSAVFGGGTQLTVLDKTHTCPPCPAPELLGGPSVFLFPPKPKDTLMISRTPEVTCVVVDVSHEDPEVKFNWYVDGVEVHNAKTKPREEQYASTYRVVSVLTVLHQDWLNGKEYKCKVSNKALPAPIEKTISKAKGQPREPQVCTLPPSREEMTKNQVSLSCAVKGFYPSDIAVEWESNGQPENNYKTTPPVLDSDGSFFLVSKLTVDKSRWQQGNVFSCSVMHEALHNHYTQKSLSLSPGK

Tests used:
NKp30 on KHYG-1 NK cells = biological target: T1, NKp30 on KHYG-1 NK cells (human, UniProt O14931 19-201); assay: FACS cell binding
T1 chain: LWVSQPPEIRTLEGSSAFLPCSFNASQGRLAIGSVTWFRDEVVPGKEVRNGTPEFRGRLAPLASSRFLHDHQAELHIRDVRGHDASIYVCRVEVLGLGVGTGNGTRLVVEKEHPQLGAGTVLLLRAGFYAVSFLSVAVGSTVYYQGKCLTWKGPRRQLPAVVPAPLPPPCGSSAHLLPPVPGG

[1] = biological target: T2, TRBC1 on TRBC1+ Jurkat cells (human, UniProt P01850 1-176); assay: FACS cell binding
T2 chain: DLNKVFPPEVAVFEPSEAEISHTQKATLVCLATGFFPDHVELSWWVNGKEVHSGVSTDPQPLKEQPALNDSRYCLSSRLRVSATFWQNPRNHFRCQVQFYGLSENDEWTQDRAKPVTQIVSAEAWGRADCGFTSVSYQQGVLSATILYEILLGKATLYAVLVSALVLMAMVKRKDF

[2] = biological target: T3, human TRBC1 (hTRBC1), construct BIM0444 (human, UniProt P01850 1-129); assay: Octet BLI
T3 chain: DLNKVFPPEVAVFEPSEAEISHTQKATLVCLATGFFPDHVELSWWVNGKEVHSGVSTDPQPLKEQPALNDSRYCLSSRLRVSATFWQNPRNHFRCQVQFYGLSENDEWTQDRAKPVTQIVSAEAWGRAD

| Binder | EC50 (NKp30 on KHYG-1 NK cells) [nM] | EC50 [1] [nM] | Kd [2] [nM] |
| --- | --- | --- | --- |
| B1 | 5.36 | – | – |
| B2 | 5.2 | – | – |
| B3 | – | 5.26 | – |
| B4 | – | – | 9 |
| B5 | – | – | 4 |
| B6 | 9.48 | 61 | – |
| B7 | 7.99 | 60.5 | – |
| B8 | 6.61 | 4.55 | – |
| B9 | 7.66 | 8.29 | – |
